The target in the assay is 血浆激肽释放酶(plasma kallikrein,PK) (human) (UniProt P03952). Put plainly: cell-based or functional assay.
Chain of UniProt P03952 (P03952 20-638 limits assumed): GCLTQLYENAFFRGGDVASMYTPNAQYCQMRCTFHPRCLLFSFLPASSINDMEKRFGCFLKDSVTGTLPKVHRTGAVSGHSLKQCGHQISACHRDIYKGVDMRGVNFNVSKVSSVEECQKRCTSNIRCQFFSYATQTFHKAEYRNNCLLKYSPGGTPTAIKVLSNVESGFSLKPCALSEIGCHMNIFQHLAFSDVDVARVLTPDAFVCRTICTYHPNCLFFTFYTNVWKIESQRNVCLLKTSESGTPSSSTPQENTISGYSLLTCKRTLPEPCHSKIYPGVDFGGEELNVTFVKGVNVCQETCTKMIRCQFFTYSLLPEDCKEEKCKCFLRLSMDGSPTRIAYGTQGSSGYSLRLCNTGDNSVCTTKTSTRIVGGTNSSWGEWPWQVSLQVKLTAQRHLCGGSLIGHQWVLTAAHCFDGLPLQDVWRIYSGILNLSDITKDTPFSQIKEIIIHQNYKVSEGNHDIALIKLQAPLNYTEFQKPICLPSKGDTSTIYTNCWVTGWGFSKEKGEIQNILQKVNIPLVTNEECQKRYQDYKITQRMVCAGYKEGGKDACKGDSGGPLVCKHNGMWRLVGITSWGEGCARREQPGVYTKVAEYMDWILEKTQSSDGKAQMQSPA

Substance MHL(Lanadelumab) (antibody) had an IC50(nM), PK activity in human plasma activated with Factor XIIa (H-Pro-Phe-Arg-AMC) of 1.17 nM and an IC50(nM), PK enzyme activity on H-Pro-Phe-Arg-AMC (fluorescence) of 0.99 nM.

The values are drawn from patent CN114790245A.
